# Data taken from PMC3166722 (2011).
# T1: GPCcyt cytoplasmic domain (Homo sapiens, UniProt P04921)
# T1 chain: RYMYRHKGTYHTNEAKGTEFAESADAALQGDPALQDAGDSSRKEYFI
# T2: band 3cyt cytoplasmic domain (Homo sapiens, UniProt P02730)
# T2 chain: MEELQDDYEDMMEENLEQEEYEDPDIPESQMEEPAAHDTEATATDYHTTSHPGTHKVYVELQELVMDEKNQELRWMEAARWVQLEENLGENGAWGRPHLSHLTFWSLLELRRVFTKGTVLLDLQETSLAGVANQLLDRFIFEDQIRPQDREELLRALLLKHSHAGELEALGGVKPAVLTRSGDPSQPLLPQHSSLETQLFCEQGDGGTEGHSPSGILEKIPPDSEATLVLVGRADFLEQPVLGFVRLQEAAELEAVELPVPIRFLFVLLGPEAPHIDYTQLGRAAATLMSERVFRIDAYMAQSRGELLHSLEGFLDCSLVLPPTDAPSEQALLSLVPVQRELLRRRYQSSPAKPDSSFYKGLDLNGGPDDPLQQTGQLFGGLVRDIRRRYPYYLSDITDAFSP
# Columns and labels:
# Test in all cases: resonant mirror detection (IAsys)
# CaM = CaM (Homo sapiens, UniProt P0DP23)
# [1] = biological target: T1, GPCcyt cytoplasmic domain
# [2] = biological target: T2, band 3cyt cytoplasmic domain
Kd (CaM),Kd [1],Kd [2],Binder
11700 nM,–,–,"4.1R135 (protein, EGTA (no Ca2+)) MTTEKSLVTEAENSQHQQKEEGEEAINSGQQEPQQEESCQTAAEGDNWCEQKLKASNGDTPTHEDLTKNKERTSESRGLSRLFSSFLKRPKSQVSEEEGKEVESDKEKGEGGQKEIEFGTSLDEEIILKAPIAAPEPELKTDPSLDLHSLSSAETQPAQEELREDPDFEIKEGEGLEECSKIEVKEESPQSKAETELKASQKPIRKHRNMHCKVSLLDDTVYECVVEKHAKGQDLLKRVCEHLNLLEEDYFGLAIWDNATSKTWLDSAKEIKKQVRGVPWNFTFNVKFYPPDPAQLTEDITRYYLCLQLRQDIVAGRLPCSFATLALLGSYTIQSELGDYDPELHGVDYVSDFKLAPNQTKELEEKVMELHKSYRSMTPAQADLEFLENAKKLSMYGVDLHKAKDLEGVDIILGVCSSGLLVYKDKLRINRFPWPKVLKISYKRSSFFIKIRPGEQEQYESTIGFKLPSYRAAKKLWKVCVEHHTFFRLTSTDTIPKSKFLALGSKFRYSGRTQAQTRQASALIDRPAPHFERTASKRASRSLDGAAAVDSADRSPRPTSAPAITQGQVAEGGVLDASAKKTVVPKAQKETVKAEVKKEDEPPEQAEPEPTEAWKVEKTHIEVTVPTSNGDQTQKLAEKTEDLIRMRKKKRERLDGENIYIRHSNLMLEDLDKSQEEIKKHHASISELKKNFMESVPEPRPSEWDKRLSTHSPFRTLNINGQIPTGEGPPLVKTQTVTISDNANAVKSEIPTKDVPIVHTETKTITYEAAQTDDNSGDLDPGVLLTAQTITSETPSSTTTTQITKTVKGGISETRIEKRIVITGDADIDHDQVLVQAIKEAKEQHPDMSVTKVVVHQETEIADE"
78 nM,–,–,"4.1R135 (protein, Ca2+) MTTEKSLVTEAENSQHQQKEEGEEAINSGQQEPQQEESCQTAAEGDNWCEQKLKASNGDTPTHEDLTKNKERTSESRGLSRLFSSFLKRPKSQVSEEEGKEVESDKEKGEGGQKEIEFGTSLDEEIILKAPIAAPEPELKTDPSLDLHSLSSAETQPAQEELREDPDFEIKEGEGLEECSKIEVKEESPQSKAETELKASQKPIRKHRNMHCKVSLLDDTVYECVVEKHAKGQDLLKRVCEHLNLLEEDYFGLAIWDNATSKTWLDSAKEIKKQVRGVPWNFTFNVKFYPPDPAQLTEDITRYYLCLQLRQDIVAGRLPCSFATLALLGSYTIQSELGDYDPELHGVDYVSDFKLAPNQTKELEEKVMELHKSYRSMTPAQADLEFLENAKKLSMYGVDLHKAKDLEGVDIILGVCSSGLLVYKDKLRINRFPWPKVLKISYKRSSFFIKIRPGEQEQYESTIGFKLPSYRAAKKLWKVCVEHHTFFRLTSTDTIPKSKFLALGSKFRYSGRTQAQTRQASALIDRPAPHFERTASKRASRSLDGAAAVDSADRSPRPTSAPAITQGQVAEGGVLDASAKKTVVPKAQKETVKAEVKKEDEPPEQAEPEPTEAWKVEKTHIEVTVPTSNGDQTQKLAEKTEDLIRMRKKKRERLDGENIYIRHSNLMLEDLDKSQEEIKKHHASISELKKNFMESVPEPRPSEWDKRLSTHSPFRTLNINGQIPTGEGPPLVKTQTVTISDNANAVKSEIPTKDVPIVHTETKTITYEAAQTDDNSGDLDPGVLLTAQTITSETPSSTTTTQITKTVKGGISETRIEKRIVITGDADIDHDQVLVQAIKEAKEQHPDMSVTKVVVHQETEIADE"
–,1330 nM,23 nM,4.1R135 (protein) MTTEKSLVTEAENSQHQQKEEGEEAINSGQQEPQQEESCQTAAEGDNWCEQKLKASNGDTPTHEDLTKNKERTSESRGLSRLFSSFLKRPKSQVSEEEGKEVESDKEKGEGGQKEIEFGTSLDEEIILKAPIAAPEPELKTDPSLDLHSLSSAETQPAQEELREDPDFEIKEGEGLEECSKIEVKEESPQSKAETELKASQKPIRKHRNMHCKVSLLDDTVYECVVEKHAKGQDLLKRVCEHLNLLEEDYFGLAIWDNATSKTWLDSAKEIKKQVRGVPWNFTFNVKFYPPDPAQLTEDITRYYLCLQLRQDIVAGRLPCSFATLALLGSYTIQSELGDYDPELHGVDYVSDFKLAPNQTKELEEKVMELHKSYRSMTPAQADLEFLENAKKLSMYGVDLHKAKDLEGVDIILGVCSSGLLVYKDKLRINRFPWPKVLKISYKRSSFFIKIRPGEQEQYESTIGFKLPSYRAAKKLWKVCVEHHTFFRLTSTDTIPKSKFLALGSKFRYSGRTQAQTRQASALIDRPAPHFERTASKRASRSLDGAAAVDSADRSPRPTSAPAITQGQVAEGGVLDASAKKTVVPKAQKETVKAEVKKEDEPPEQAEPEPTEAWKVEKTHIEVTVPTSNGDQTQKLAEKTEDLIRMRKKKRERLDGENIYIRHSNLMLEDLDKSQEEIKKHHASISELKKNFMESVPEPRPSEWDKRLSTHSPFRTLNINGQIPTGEGPPLVKTQTVTISDNANAVKSEIPTKDVPIVHTETKTITYEAAQTDDNSGDLDPGVLLTAQTITSETPSSTTTTQITKTVKGGISETRIEKRIVITGDADIDHDQVLVQAIKEAKEQHPDMSVTKVVVHQETEIADE
